The target in this experiment is FFAR4-NanoLuc (UniProt Q5NUL3). Description: FRET or BRET. Background: Bioluminescence resonance energy transfer reports proximity on the nanometre scale.
UniProt Q5NUL3, sequence (Q5NUL3 whole entry): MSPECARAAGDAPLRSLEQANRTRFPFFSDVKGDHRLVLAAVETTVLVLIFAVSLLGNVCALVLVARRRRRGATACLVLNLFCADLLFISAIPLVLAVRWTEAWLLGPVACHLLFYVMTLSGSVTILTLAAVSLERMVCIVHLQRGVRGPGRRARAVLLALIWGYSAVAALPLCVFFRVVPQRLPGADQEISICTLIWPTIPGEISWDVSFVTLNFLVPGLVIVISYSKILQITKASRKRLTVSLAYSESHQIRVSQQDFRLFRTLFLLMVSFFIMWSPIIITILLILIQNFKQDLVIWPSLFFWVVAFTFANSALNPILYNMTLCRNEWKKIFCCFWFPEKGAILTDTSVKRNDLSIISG

Regarding Venus-tagged mini-Gαi, the fold BRET signal against mini-Gαq was 3 fold.

As for Venus-tagged mini-Gαo, the fold BRET signal against mini-Gαq worked out at 3 fold.

The values are drawn from PMC7683346.
